Data on 14 substances can be found in article PMC9524020.

Common to all, as to test: SPR
In general terms: SPR reads the build-up and loss of mass on a sensor chip optically.

For experiment [1], the target named is FcγRIIIa-158V-G2FS(2-6) (human).
The target of experiment [2] is FcγRIIIa-158F-HEK^WT (human) (UniProt P08637).
Experiment [3] addresses FcγRIIIa-158F-G2FS(2-6) (human) (UniProt P08637).
In experiment [4] the target is FcγRIIIa-158V-CHO^WT (soluble FcγRIIIa, allotype 158V, from wild-type CHO) (human).
Experiment [5] addresses FcγRIIIa-158V-Hybrid (human).
For experiment [6], the target named is FcγRIIIa-158V-Oligomannose (human).
Experiment [7] addresses FcγRIIIa-158F-Monoantennae (human) (UniProt P08637).
The target in experiment [8] is FcγRIIIa-158F-CHO^WT (soluble FcγRIIIa, allotype 158F, from wild-type CHO) (human) (UniProt P08637).
Experiment [9] addresses FcγRIIIa-158F-Afucosylated (human) (UniProt P08637).
The target of experiment [10] is biotinylated, recombinant, human FcγRIIIa-158F from SinoBiological (human) (UniProt P08637).
Experiment [11] addresses biotinylated, recombinant, human FcγRIIIa-158V from SinoBiological (human).
Experiment [12] concerns the target FcγRIIIa-158V-HEK^WT (human).
The target of experiment [13] is FcγRIIIa-158V-Monoantennae (human).
Experiment [14] concerns the target FcγRIIIa-158V-Afucosylated (human).
Experiment [15] deals with FcγRIIIa-158V-G2FS(2-3) (human).
Experiment [16] addresses FcγRIIIa-158F-G2FS(2-3) (human) (UniProt P08637).
Experiment [17] concerns the target FcγRIIIa-158F-Hybrid (human) (UniProt P08637).
Experiment [18] concerns the target FcγRIIIa-158V, FcγRIIIa-Monoantennae (human).
The target of experiment [19] is FcγRIIIa-158V, FcγRIIIa-CHO^WT (human).
Experiment [20] deals with FcγRIIIa-158V, FcγRIIIa-G2FS(2-3) (human).
Experiment [21] has as its target FcγRIIIa-158V, FcγRIIIa-Hybrid (human).
Experiment [22] deals with FcγRIIIa-158V, FcγRIIIa-Oligomannose (human).
The target of experiment [23] is FcγRIIIa-158V, FcγRIIIa-Afucosylated (human).
Experiment [24] deals with FcγRIIIa-158V, FcγRIIIa-G2FS(2-6) (human).
Experiment [25] has as its target FcγRIIIa-158V, FcγRIIIa-HEK^WT (human).

Chain of FcγRIIIa-158F-Hybrid (human) (P08637 17-208): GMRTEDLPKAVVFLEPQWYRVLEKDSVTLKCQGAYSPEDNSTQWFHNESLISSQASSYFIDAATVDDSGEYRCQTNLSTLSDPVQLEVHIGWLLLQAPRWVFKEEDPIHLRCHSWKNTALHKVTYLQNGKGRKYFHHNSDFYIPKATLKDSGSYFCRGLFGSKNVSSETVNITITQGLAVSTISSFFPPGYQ
Chain of FcγRIIIa-158F-Monoantennae (human) (P08637 17-208): as above
Chain of biotinylated, recombinant, human FcγRIIIa-158F from SinoBiological (human) (P08637 17-208): as above
Chain of FcγRIIIa-158F-Afucosylated (human) (P08637 17-208): as above
Chain of FcγRIIIa-158F-CHO^WT (soluble FcγRIIIa, allotype 158F, from wild-type CHO) (human) (P08637 17-208): as above
Chain of FcγRIIIa-158F-G2FS(2-3) (human) (P08637 17-208): as above
Chain of FcγRIIIa-158F-HEK^WT (human) (P08637 17-208): as above
Chain of FcγRIIIa-158V, FcγRIIIa-HEK^WT (human) (P08637 17-208 F176V): as the sequence (P08637 17-208) above, with F160V counted along it
Chain of FcγRIIIa-158V, FcγRIIIa-Monoantennae (human) (P08637 17-208 F176V): as the sequence (P08637 17-208) above, with F160V counted along it
Chain of FcγRIIIa-158V, FcγRIIIa-Hybrid (human) (P08637 17-208 F176V): as the sequence (P08637 17-208) above, with F160V counted along it
Chain of FcγRIIIa-158V, FcγRIIIa-Afucosylated (human) (P08637 17-208 F176V): as the sequence (P08637 17-208) above, with F160V counted along it
Chain of FcγRIIIa-158V, FcγRIIIa-CHO^WT (human) (P08637 17-208 F176V): as the sequence (P08637 17-208) above, with F160V counted along it
Chain of FcγRIIIa-158V, FcγRIIIa-G2FS(2-3) (human) (P08637 17-208 F176V): as the sequence (P08637 17-208) above, with F160V counted along it
Chain of FcγRIIIa-158V, FcγRIIIa-Oligomannose (human) (P08637 17-208 F176V): as the sequence (P08637 17-208) above, with F160V counted along it
Chain of FcγRIIIa-158V, FcγRIIIa-G2FS(2-6) (human) (P08637 17-208 F176V): as the sequence (P08637 17-208) above, with F160V counted along it
Chain of FcγRIIIa-158F-G2FS(2-6) (human) (P08637 17-208): as the sequence (P08637 17-208) above

A word on the Kd: it is the free concentration of one partner at which half of the binding sites on the other are occupied at equilibrium, for simple one-to-one binding. As to “IgG1-CHO^WT (anti-rabies human IgG1 mAb SO57 from wild-type CHO) (antibody)”, the Kd in experiment [1] turned out to be 443 nM; in [2] it was 2160 nM; in [3], 1680 nM; in experiment [4], 489 nM; in [5], 456 nM; in experiment [6], 242 nM. In addition, the Kd in experiment [7] was 2350 nM; in [8] it was 3490 nM; in experiment [9], 2330 nM; in [10], 1780 nM; in experiment [11], 440 nM; in [12], 440 nM. Moreover, the dissociation constant Kd in experiment [13] is 489 nM; in [14], 464 nM; in experiment [15] it was 624 nM; in [16], 2540 nM; in experiment [17], 2220 nM.
As to IgG1-G0 (mAb SO57) (antibody), the Kd in experiment [1] is 29.7 nM; in experiment [4] it was 36.9 nM; in [5] it was 33 nM; in experiment [6] it was 14.2 nM; in [7] it was 170 nM; in experiment [8], 213 nM. The dissociation constant Kd stood at 164 nM in [9]; 32.9 nM in experiment [11]; 37.6 nM in [13]; 29.6 nM in experiment [14]; 184 nM in experiment [16].
For “IgG1-G0 (mAb SO57, afucosylated, agalactosylated)”, the equilibrium dissociation constant (Kd) in experiment [18] came out at 38 nM; in experiment [19], 37 nM; in experiment [20], 38 nM; in experiment [21], 33 nM; in experiment [22] it was 14 nM.
Regarding IgG1-G2F (mAb SO57) (antibody), the Kd turned out to be 262 nM in [1]; 1150 nM in experiment [2]; 851 nM in experiment [3]; 278 nM in [4]; 297 nM in experiment [5]; 1270 nM in experiment [7]. Besides, the equilibrium dissociation constant (Kd) in experiment [8] is 1860 nM; in experiment [9] it was 1210 nM; in experiment [10], 965 nM; in experiment [12], 263 nM; in experiment [13], 305 nM; in experiment [14] it was 270 nM. Also, the Kd in experiment [15] stood at 377 nM; in experiment [16], 1370 nM; in [17], 1210 nM.
In the case of IgG1-G2F (mAb SO57, galactosylated), the Kd in experiment [18] turned out to be 300 nM; in experiment [23] it was 270 nM; in experiment [24], 260 nM; in experiment [20], 380 nM; in experiment [25] it was 260 nM; in experiment [21], 300 nM.
As to “IgG1-G2FS(2-3) (mAb SO57, α2-3 linked Sia)”, the dissociation constant Kd came out at 310 nM in experiment [18]; 290 nM in experiment [19]; 260 nM in [24]; 260 nM in experiment [25]; 300 nM in [21].
On to IgG1-G2FS(2-6) (mAb SO57) (antibody), for which the Kd in experiment [2] came to 1050 nM; in [5], 281 nM; in experiment [6], 145 nM; in [7], 1110 nM; in experiment [8], 1860 nM; in experiment [9], 964 nM. For the same substance, the Kd in [11] was 275 nM; in experiment [12] it was 261 nM; in experiment [13] it was 289 nM; in experiment [14] it was 260 nM; in experiment [15], 398 nM; in experiment [16] it was 1240 nM. Further, the dissociation constant (Kd) in [17] was 1110 nM.
“IgG1-G2FS(2-6) (mAb SO57, α2-6 linked Sia)”: the Kd in experiment [18] worked out at 290 nM; in experiment [23], 260 nM; in experiment [20], 400 nM; in [25] it was 260 nM.
For the substance IgG1-Hybrid (mAb SO57) (antibody), the Kd in [1] is 573 nM; in [2], 2510 nM; in experiment [4], 869 nM; in [5], 471 nM; in experiment [6], 399 nM; in experiment [7], 2200 nM. For the same substance, the Kd amounted to 4610 nM in experiment [8]; 2210 nM in experiment [9]; 2230 nM in experiment [10]; 598 nM in experiment [11]; 693 nM in [12]; 426 nM in experiment [13]. In addition, the dissociation constant Kd in experiment [14] amounted to 808 nM; in [15], 1070 nM; in experiment [17], 2660 nM.
On to IgG1-Hybrid (mAb SO57, hybrid N-glycan), for which the Kd in [23] was 810 nM; in [19], 870 nM; in experiment [20] it was 1100 nM; in experiment [25], 690 nM; in experiment [21] it was 470 nM; in experiment [22], 400 nM.
For IgG1-Monoantennae (mAb SO57) (antibody), the Kd in experiment [1] stood at 755 nM; in experiment [4] it was 635 nM; in [5], 742 nM; in experiment [6], 375 nM; in experiment [10], 3260 nM; in [11], 761 nM. The Kd in experiment [12] turned out to be 643 nM; in [13], 731 nM; in experiment [14] it was 698 nM; in [15], 935 nM.
With “IgG1-Monoantennae (mAb SO57, monoantennary N-glycan)”, the equilibrium dissociation constant (Kd) in experiment [18] came out at 730 nM; in experiment [23], 700 nM; in experiment [19] it was 640 nM; in [24], 750 nM; in experiment [20], 930 nM; in experiment [25], 640 nM. For the same substance, the dissociation constant Kd was found to be 740 nM in [21] and 380 nM in experiment [22].
Take IgG1-Oligomannose (mAb SO57) (antibody): the Kd is 79.6 nM in experiment [1]; 383 nM in experiment [2]; 104 nM in [5]; 37.6 nM in [6]; 428 nM in experiment [7]; 582 nM in experiment [8]. In addition, the dissociation constant (Kd) in experiment [9] came out at 406 nM; in experiment [11] it was 93.2 nM; in [12], 87.2 nM; in experiment [13], 109 nM; in experiment [14], 88.3 nM; in [15], 123 nM. For the same substance, the Kd in experiment [16] was 480 nM; in [17], 405 nM.
Turning to IgG1-Oligomannose (mAb SO57, Man5), the Kd in [23] came out at 88 nM; in experiment [24], 80 nM; in experiment [25], 87 nM; in [22], 38 nM.
